Test results: patent US20160108115 (published 2016)
Read-outs that look alike come from different tables or passages of the source.

T1: mouse C5 (mouse, UniProt P06684)
T1 chain 1: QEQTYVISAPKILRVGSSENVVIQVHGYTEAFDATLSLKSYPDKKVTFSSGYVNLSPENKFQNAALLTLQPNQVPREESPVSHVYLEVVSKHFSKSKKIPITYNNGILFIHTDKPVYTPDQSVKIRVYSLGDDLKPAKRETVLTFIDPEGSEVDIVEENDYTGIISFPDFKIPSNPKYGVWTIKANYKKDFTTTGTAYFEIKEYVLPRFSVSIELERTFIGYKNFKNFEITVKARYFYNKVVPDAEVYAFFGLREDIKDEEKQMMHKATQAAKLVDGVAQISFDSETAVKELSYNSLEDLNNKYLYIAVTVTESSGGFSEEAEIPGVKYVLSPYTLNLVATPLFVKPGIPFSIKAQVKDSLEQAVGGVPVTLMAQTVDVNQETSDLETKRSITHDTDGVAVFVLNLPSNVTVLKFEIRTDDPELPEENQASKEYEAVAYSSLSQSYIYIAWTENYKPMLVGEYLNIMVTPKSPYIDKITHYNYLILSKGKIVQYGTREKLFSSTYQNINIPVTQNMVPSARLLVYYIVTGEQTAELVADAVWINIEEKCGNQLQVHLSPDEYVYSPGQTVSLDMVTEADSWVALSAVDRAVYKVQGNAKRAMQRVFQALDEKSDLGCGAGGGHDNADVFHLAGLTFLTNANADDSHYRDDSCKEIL
T1 chain 2: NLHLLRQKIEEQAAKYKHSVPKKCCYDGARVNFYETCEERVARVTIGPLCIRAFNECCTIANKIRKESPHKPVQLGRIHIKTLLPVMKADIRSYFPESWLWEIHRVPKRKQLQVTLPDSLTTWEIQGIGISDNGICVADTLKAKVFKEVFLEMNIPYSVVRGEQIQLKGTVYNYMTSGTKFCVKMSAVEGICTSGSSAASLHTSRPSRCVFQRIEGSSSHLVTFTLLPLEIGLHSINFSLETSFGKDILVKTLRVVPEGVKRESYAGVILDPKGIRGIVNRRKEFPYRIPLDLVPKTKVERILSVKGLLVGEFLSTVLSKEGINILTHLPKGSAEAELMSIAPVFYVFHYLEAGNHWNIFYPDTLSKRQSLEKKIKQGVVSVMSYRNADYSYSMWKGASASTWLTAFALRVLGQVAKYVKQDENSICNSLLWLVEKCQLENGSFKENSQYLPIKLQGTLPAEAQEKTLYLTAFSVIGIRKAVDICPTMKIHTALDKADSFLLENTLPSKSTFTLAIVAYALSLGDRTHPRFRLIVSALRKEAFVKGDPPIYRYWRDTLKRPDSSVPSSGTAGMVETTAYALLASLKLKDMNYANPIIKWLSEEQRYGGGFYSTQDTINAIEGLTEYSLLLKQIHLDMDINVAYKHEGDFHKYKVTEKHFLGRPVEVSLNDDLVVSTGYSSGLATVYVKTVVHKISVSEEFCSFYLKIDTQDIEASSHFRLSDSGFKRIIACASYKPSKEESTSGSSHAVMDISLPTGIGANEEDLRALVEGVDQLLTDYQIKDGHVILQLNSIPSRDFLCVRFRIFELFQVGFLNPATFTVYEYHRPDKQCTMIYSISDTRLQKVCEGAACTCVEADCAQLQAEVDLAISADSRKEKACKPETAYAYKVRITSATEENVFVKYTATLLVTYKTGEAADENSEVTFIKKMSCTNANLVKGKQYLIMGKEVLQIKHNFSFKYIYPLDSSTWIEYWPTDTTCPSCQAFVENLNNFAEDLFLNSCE

T2: FcγRIIa (human, UniProt P12318)
T2 chain: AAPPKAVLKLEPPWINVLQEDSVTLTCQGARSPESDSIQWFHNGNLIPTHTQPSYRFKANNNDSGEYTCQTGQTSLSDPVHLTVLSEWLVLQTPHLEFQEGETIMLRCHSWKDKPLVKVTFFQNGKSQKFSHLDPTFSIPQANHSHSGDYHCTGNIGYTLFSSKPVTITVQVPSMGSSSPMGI

T3: FcγRIIb/c (human, UniProt P31994)
T3 chain: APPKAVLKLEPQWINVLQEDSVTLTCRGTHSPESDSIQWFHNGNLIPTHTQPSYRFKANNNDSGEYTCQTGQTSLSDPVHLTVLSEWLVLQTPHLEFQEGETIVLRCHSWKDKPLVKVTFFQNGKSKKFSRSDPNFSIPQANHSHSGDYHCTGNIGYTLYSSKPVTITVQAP


How the values were obtained:
[1] = molecular target: T1, mouse C5; experiment: SPR, pH 7.4
[2] = molecular target: T1, mouse C5; experiment: SPR, pH 6.0
[3] = molecular target: T1, mouse C5; experiment: SPR, pH 6.0
[4] = molecular target: T2, FcγRIIa; experiment: SPR, pH 7.4
[5] = molecular target: T3, FcγRIIb/c; experiment: SPR, pH 7.4
[6] = molecular target: T4, human C5 (human, UniProt P01031); experiment: SPR
[7] = molecular target: T4, human C5; experiment: SPR; remark: listed apart in the source

Row | Binder | Kd [1] [nM] | binding result [3] | Kd [7] [nM] | also measured
1 | BHL011 (antibody, V domains shown) VH: QVQLQQPGAELVRPGTSVKLSCKASGYTFTSSWMHWVKQRPGQGLEWIGVIDPSDSYTNYNQKFKGKATLTVDTSSSTAYMQLSSLTSEDSAVYYCARGGGSSYNRYFDVWGTGTTVTVSS VL: NIMMTQSPSSLAVSAGEKVTMSCKSSQSVLYSSNQKNYLAWYQQKPGQSPKLLIYWASTRESGVPDRFTGSGSGTDFTLTISSVQAEDLAVYYCAQYLSSRTFGGGTKLEIKR | 0.0952 | – | – | Kd [2]: 53.6 nM
2 | BHL009 (antibody) chain 1: QVQLQQPGAELVRPGTSVKLSCKASGYTFTSSWMHWVKQRPGQGLEWIGVIDPHDSYTNYNQKFKGKATLTVDTSSSTAYMQLSSLTSEDSAVYYCARGGGSSYNRYFDVWGTGTTVTVSSASTKGPSVFPLAPCSRSTSESTAALGCLVKDYFPEPVTVSWNSGALTSGVHTFPAVLQSSGLYSLSSVVTVPSSNFGTQTYTCNVDHKPSNTKVDKTVERKCCVECPPCPAPPVAGPSVFLFPPKPKDTLMISRTPEVTCVVVDVSQEDPEVQFNWYVDGVEVHNAKTKPREEQFNSTYRVVSVLTVLHQDWLNGKEYKCKVSNKGLPSSIEKTISKAKGQPREPQVYTLPPSQEEMTKNQVSLTCLVKGFYPSDIAVEWESNGQPENNYKTTPPVLDSDGSFFLYSRLTVDKSRWQEGNVFSCSVLHEALHSHYTQKSLSLSLGK chain 2: not shown | 4.19 | no binding | – | –
3 | eculizumab (full length) (antibody) chain 1: QVQLVQSGAEVKKPGASVKVSCKASGYIFSNYWIQWVRQAPGQGLEWMGEILPGSGSTEYTENFKDRVTMTRDTSTSTVYMELSSLRSEDTAVYYCARYFFGSSPNWYFDVWGQGTLVTVSSASTKGPSVFPLAPCSRSTSESTAALGCLVKDYFPEPVTVSWNSGALTSGVHTFPAVLQSSGLYSLSSVVTVPSSNFGTQTYTCNVDHKPSNTKVDKTVERKCCVECPPCPAPPVAGPSVFLFPPKPKDTLMISRTPEVTCVVVDVSQEDPEVQFNWYVDGVEVHNAKTKPREEQFNSTYRVVSVLTVLHQDWLNGKEYKCKVSNKGLPSSIEKTISKAKGQPREPQVYTLPPSQEEMTKNQVSLTCLVKGFYPSDIAVEWESNGQPENNYKTTPPVLDSDGSFFLYSRLTVDKSRWQEGNVFSCSVMHEALHNHYTQKSLSLSLGK chain 2: DIQMTQSPSSLSASVGDRVTITCGASENIYGALNWYQQKPGKAPKLLIYGATNLADGVPSRFSGSGSGTDFTLTISSLQPEDFATYYCQNVLNTPLTFGQGTKVEIKRTVAAPSVFIFPPSDEQLKSGTASVVCLLNNFYPREAKVQWKVDNALQSGNSQESVTEQDSKDSTYSLSSTLTLSKADYEKHKVYACEVTHQGLSSPVTKSFNRGEC | – | – | – | Kd [4]: 2580 nM; Kd [5]: 9840 nM
4 | EHL004 (antibody, V domains shown) VH: QVQLVQSGAEVKKPGASVKVSCKASGYIFSNYWIQWVRQAPGQGLEWMGEILPGSGHTEYTENFKDRVTMTRDTSTSTVYMELSSLRSEDTAVYYCARYFFGSSPNWYFDVWGQGTLVTVSS VL: DIQMTQSPSSLSASVGDRVTITCGASENIYHALNWYQQKPGKAPKLLIYGATNLADGVPSRFSGSGSGTDFTLTISSLQPEDFATYYCQNVLNTPLTFGQGTKVEIK | – | – | 0.135 | Kd [6]: 374 nM
5 | BHL006 (antibody) chain 1: QVQLQQPGAELVRPGTSVKLSCKASGYTFTSSWMHWVKQRPGQGLEWIGVIDPHDSYTNYNQKFKGKATLTVDTSSSTAYMQLSSLTSEDSAVYYCARGGGSSYNRYFDVWGTGTTVTVSSASTKGPSVFPLAPCSRSTSESTAALGCLVKDYFPEPVTVSWNSGALTSGVHTFPAVLQSSGLYSLSSVVTVPSSNFGTQTYTCNVDHKPSNTKVDKTVERKCCVECPPCPAPPVAGPSVFLFPPKPKDTLMISRTPEVTCVVVDVSQEDPEVQFNWYVDGVEVHNAKTKPREEQFNSTYRVVSVLTVLHQDWLNGKEYKCKVSNKGLPSSIEKTISKAKGQPREPQVYTLPPSQEEMTKNQVSLTCLVKGFYPSDIAVEWESNGQPENNYKTTPPVLDSDGSFFLYSRLTVDKSRWQEGNVFSCSVMHEALHNHYTQKSLSLSLGK chain 2: not shown | 3.49 | no binding | – | –
6 | EHL046 (antibody, V domains shown) VH: QVQLVQSGAEVKKPGASVKVSCKASGHIFSNYWIQWVRQAPGQGLEWMGEIHPGSGSTEYTENFKDRVTMTRDTSTSTVYMELSSLRSEDTAVYYCARYFFGSSPNWYFDVWGQGTLVTVSS VL: DIQMTQSPSSLSASVGDRVTITCGASENIYHALNWYQQKPGKAPKLLIYGATNLADGVPSRFSGSGSGTDFTLTISSLQPEDFATYYCQNVLNTPLTFGQGTKVEIK | – | – | 1.15 | –
